The target of assay [1] is T1, wild type human EGFR1 on cells (F98 EGFR1; wild type U87MG; wild type FaDu) (human, UniProt P00533 25-1210).
T1 construct: whole, on cells
In words: flow cytometry on F98 EGFR1 cells, anti-human IgG Fc Alexa Fluor 647, MFI. A general note: In flow cytometry, cells or beads pass a laser one at a time.

The target of assay [2] is T2, human EGFRvIII overexpressed on cells (F98npEGFRvIII, U87MG-EGFRvIII, FaDu-EGFRvIII) (human, UniProt P00533 25-1210).
T2 construct: whole, on cells; the vIII deletion must be applied; also called F98 EGFRvIII
Description: flow cytometry, F98npEGFRvIII cells, n=3.

Assay [3] deals with T3, human EGFRvIII, purified recombinant protein (Acro Biosystems Cat #EGI-H52H4) (human, UniProt P00533 25-645).
T3 construct: Bought protein; the deletion must be applied; also called truncated human EGFRvIII; huEGFRvIII
Description: ELISA, antigen coated at 1 ug/mL, anti-human IgG-HRP, n=3. (An ELISA detects its analyte on a solid surface through an enzyme-linked reagent.)

In assay [4] the target is T4, human EGFR, purified recombinant protein (Acro Biosystems Cat #EGR-H5222) (human, UniProt P00533 25-645).
T4 construct: Bought protein; also called EGFR1; full length human EGFR1
In words: SPR (Carterra LSA), antibody captured on anti-human IgG, EGFR1 injected in a 5-fold series from 500 nM.

Assay [5] has as its target T3, human EGFRvIII, purified recombinant …. In words: SPR (Carterra LSA), antibody captured on anti-human IgG, antigen injected, 1:1 Langmuir fit.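 Note: EGFRvIII injected at five concentrations, fivefold serial dilution starting 500 nM, 5 min association then 15 min dissociation, double-referenced against interspot and buffer blank signals, global kinetic fit.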
The target in assay [6] is T2, human EGFRvIII overexpressed on cells …. Description: cell-based or functional assay.
Assay [7] shares this target. Description: cell-based or functional assay. The source holds these as a separate data set.
Assay [8] shares this target. Description: flow cytometry, FaDu-EGFRvIII cells, n=3.
The target of assay [9] is T1, wild type human EGFR1 on cells (F98 …). In words: flow cytometry on wild type U87MG cells, anti-human IgG Fc Alexa Fluor 647, MFI.
In assay [10] the target is T2, human EGFRvIII overexpressed on cells …. Description: cell-based or functional assay. This is another data set of the same source.
For assay [11] the target is unchanged. Description: flow cytometry, U87MG-EGFRvIII cells, n=3.
Assay [12] deals with T4, human EGFR, purified recombinant …. Description: ELISA, plate coated with human EGFR1, anti-human IgG-HRP, OD450.
For assay [13] the target is unchanged. In words: SPR (Carterra LSA), antibody captured on anti-human IgG, EGFR1 injected in a 5-fold series from 500 nM. The source holds these as a separate data set.

B1: SD-844257-afuc (antibody, V domains shown)
VH: EVQLVQSGAEVKKPGASVKLSCKASGYTFTSYDINWVRQAPGQGLEWIGWIFPGDGTSKYAQKFQGRATLTTDTSTSTAYMELSSLRSEDTAVYYCARRLGSHWGQGTTLTVSS
VL: DIQLTQSPSSLSASVGDRVTITCKASQSVDSDGDSYMNWYQQKPGKAPKLLIYGASNLESGVPSRFSGSGSGTDFTLTISSLQPEDFATYYCQQSHEYPFTFGQGTKLEIK
notes: afucosylated (FUT8 knock-out CHO)
Broadly, the EC50 is the concentration at which the effect is half-maximal. Broadly, the Kd is a measure of binding affinity in units of concentration. For orientation: koff means the rate constant with which the complex falls apart. A word on the kon: it is a measure of how fast the partners come together. In the case of B1, the binding result in [1] was “no binding”. This molecule also registered an EC50 in [2] of 3.85 nM. For the same molecule, in [3], the EC50 was found to be 0.111 nM. The binding result in assay [4] is recorded as “no binding”. In assay [5], the Kd amounted to 90 nM, the koff is 0.0048 s⁻¹ and the kon was 53000 M⁻¹ s⁻¹. Also, the “ADCC EC50 (nM), F98 EGFRvIII cells with PBMC” value in assay [6] was determined as 0.0738 nM.

B2: SD-837152-afuc (antibody, V domains shown)
VH: QVQLVQSGAEVKKPGASVKVSCKASGYTFTSYDINWVRQAPGQRLEWMGWIFPGDGTSKYNEKFKGRVTITRDTSASTAYMELSSLRSEDTAVYYCARRLGSHWGQGTLVTVSS
VL: DIVLTQSPASLAVSPGQRATITCKASQSVDSDGDSYMNWYQQKPGQPPKLLIYGASNLESGVPARFSGSGSGTDFTLTINPVEANDTANYYCQQSHEYPFTFGQGTKLEIK
notes: as for B1
On to B2, for which the EC50 is 0.155 nM in assay [3], 4.98 nM in [8] and 5.75 nM in [11]. Moreover, the binding result in assay [4] and in assay [9] was “no binding” each time. Further, the “ADCC EC50 (nM), FaDu-EGFRvIII cells with PBMC” value in assay [7] is 0.0058 nM. The dissociation constant (Kd) in [5] was found to be 60 nM. Further, the koff in assay [5] came out at 0.0026 s⁻¹. In addition, the kon in assay [5] is 43000 M⁻¹ s⁻¹. Moreover, the “ADCC EC50 (nM), U87MG-EGFRvIII cells with PBMC” value in assay [10] turned out to be 0.0036 nM.

B3: SD-649072-afuc (antibody, V domains shown)
VH: QVQLVQSGAEVKKPGASVKVSCKASGYTFTSYDINWVRQAPGQRLEWMGWIFPGDGTSKYNEKFKGRVTITRDTSASTAYMELSSLRSEDTAVYYCARRLGTVWGQGTLVTVSS
VL: DIVLTQSPASLAVSPGQRATITCKASQSVDSDGDSYMNWYQQKPGQPPKLLIYGASNLESGVPARFSGSGSGTDFTLTINPVEANDTANYYCQQSHEYPFTFGQGTKLEIK
notes: as for B1
B3: the binding result in [12] and in assay [9] was “no binding” throughout. Moreover, the figures for the EC50 in assay [3], in assay [8] and in assay [11] were 0.129 nM, 3.86 nM and 4.33 nM, respectively. Moreover, in assay [7], the “ADCC EC50 (nM), FaDu-EGFRvIII cells with PBMC” value was found to be 0.0033 nM. In addition, in assay [5], the Kd came to 33 nM. The off-rate (koff) in [5] came out at 0.0017 s⁻¹. Further, the kon in [5] came to 51000 M⁻¹ s⁻¹. Also, the “ADCC EC50 (nM), U87MG-EGFRvIII cells with PBMC” value in [10] came out at 0.0066 nM.

B4: SD-127612-afuc (antibody, V domains shown)
VH: QVQLVQSGAEVKKPGASVKVSCKASGYTFTSYDINWVRQAPGQRLEWMGWIFPGDGTSKYNEKFKGRVTITRDTSASTAYMELSSLRSEDTAVYYCARRLGSHWGQGTLVTVSS
VL: DIVLTQSPDSLAVSPGERATISCKASQSVDSDGDSYMNWYQQKPGQPPKLLIYGASNLESGVPDRFSGSGSGTDFTLTISRVEAEDVAVYYCQQSHEYPFTFGGGTKLEIK
notes: as for B1
For B4, the EC50 in assay [3] is 0.156 nM; in assay [8], 5.27 nM; in [11], 6.05 nM. Also, the “ADCC EC50 (nM), FaDu-EGFRvIII cells with PBMC” value in assay [7] was 0.0051 nM. Besides, the binding result in [9] and in assay [13] was “no binding” in each case. Also, the Kd in assay [5] was found to be 57 nM. In addition, the koff in [5] turned out to be 0.0024 s⁻¹. The kon in [5] is 42000 M⁻¹ s⁻¹. Further, the “ADCC EC50 (nM), U87MG-EGFRvIII cells with PBMC” value in assay [10] was determined as 0.0047 nM.
